Measured values as given in patent US20210077575A1 (CEDARS SINAI MEDICAL CENTER, published 2021).

Molecular target: T1, HER3 (human, UniProt P21860 20-1342)
T1 construct: whole, on cells; Endogenous receptor on tumour cell lines; also called ErbB3; Human ErbB3/HER3
Test: confocal immunofluorescence, SK-MEL-2 cells treated with HerPBK10-GFPD10 nanoparticles, 0 minutes
Experimental: The cells were counterstained using DAPI to stain the nucleus and rhodamine phalloidin to stain actin.
Images were taken after 0, 15, 30, 60, and 120 minutes using confocal microscopy.

T1 sequence (P21860 20-1342): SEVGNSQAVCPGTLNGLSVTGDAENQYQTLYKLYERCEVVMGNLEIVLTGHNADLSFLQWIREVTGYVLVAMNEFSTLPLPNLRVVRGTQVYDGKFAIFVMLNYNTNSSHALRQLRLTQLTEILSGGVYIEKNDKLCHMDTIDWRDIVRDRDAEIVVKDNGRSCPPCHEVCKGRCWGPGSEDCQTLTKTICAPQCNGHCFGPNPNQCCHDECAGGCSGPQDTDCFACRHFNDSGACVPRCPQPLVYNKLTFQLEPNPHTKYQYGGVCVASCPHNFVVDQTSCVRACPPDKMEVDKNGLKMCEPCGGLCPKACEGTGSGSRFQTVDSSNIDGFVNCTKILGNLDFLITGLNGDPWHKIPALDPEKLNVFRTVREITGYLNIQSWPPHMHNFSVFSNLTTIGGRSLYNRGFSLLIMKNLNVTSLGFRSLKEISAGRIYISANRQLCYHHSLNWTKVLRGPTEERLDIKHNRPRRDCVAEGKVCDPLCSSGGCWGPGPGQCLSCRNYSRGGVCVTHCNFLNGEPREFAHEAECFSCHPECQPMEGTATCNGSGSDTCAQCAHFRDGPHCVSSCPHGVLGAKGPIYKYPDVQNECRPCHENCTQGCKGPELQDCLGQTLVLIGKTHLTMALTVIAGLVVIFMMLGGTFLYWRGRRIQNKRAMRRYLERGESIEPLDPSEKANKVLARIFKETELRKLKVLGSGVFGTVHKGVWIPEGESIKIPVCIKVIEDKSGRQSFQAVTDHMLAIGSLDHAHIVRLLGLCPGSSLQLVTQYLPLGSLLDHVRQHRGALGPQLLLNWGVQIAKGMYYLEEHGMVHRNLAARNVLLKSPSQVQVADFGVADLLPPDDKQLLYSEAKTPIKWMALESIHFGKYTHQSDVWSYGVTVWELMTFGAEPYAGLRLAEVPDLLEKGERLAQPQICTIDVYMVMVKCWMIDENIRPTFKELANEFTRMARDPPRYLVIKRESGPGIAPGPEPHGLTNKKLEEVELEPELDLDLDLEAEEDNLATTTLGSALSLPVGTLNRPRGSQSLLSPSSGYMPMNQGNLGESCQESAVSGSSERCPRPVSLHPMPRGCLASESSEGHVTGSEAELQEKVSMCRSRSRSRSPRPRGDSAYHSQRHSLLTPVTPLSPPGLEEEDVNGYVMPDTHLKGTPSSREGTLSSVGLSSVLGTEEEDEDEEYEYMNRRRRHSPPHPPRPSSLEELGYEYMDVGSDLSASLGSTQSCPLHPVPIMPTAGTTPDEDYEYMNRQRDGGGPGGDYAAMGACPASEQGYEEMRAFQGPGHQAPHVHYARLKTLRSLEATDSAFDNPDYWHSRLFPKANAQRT

B1: HerPBK10 carrier polypeptide comprising a Her cell-targeting segment, a penton base (PB) segment, a decalysine (K10) binding segment, and an N-terminal … (other)
chain: MRGSHHHHHHGMASMTGGQQMGRDLYDDDDKDRWGSELLPPQLKEMKSQESAAGSKLVLRCETSSEYSSLRFKWFKNGNELNRKNKPQNIKIQKKPGKSELRINKASLADSGEYMCKVISKLGNDSASANIAIVESNEIITGMPASTEGAYVSSESPIRISVSTEGANTSSSTSTSTTGTSHLVKCAEKEKTFCVNGGECFMVKDLSNPSRYLCKCQPGFTGARCTENVPMKVQNQEKAEELYGGSGGSRSMRRAAMYEEGPPPSYESVVSAAPVAAALGSPFDAPLDPPFVPPRYLRPTGGRNSIRYSELAPLFDTTRVYLVDNKSTDVASLNYQNDHSNFLTTVIQNNDYSPGEASTQTINLDDRSHWGGDLKTILHTNMPNVNEFMFTNKFKARVMVSRLPTKDNQVELKYEWVEFTLPEGNYSETMTIDLMNNAIVEHYLKVGRQNGVLESDIGVKFDTRNFRLGFDPVTGLVMPGVYTNEAFHPDIILLPGCGVDFTHSRLSNLLGIRKRQPFQEGFRITYDDLEGGNIPALLDVDAYQASLKDDTEQGGGGAGGSNSSGSGAEENSNAAAAAMQPVEDMNDHAIRGDTFATRAEEKRAEAEAAAEAAAPAAQPEVEKPQKKPVIKPLTEDSKKRSYNLISNDSTFTQYRSWYLAYNYGDPQTGIRSWTLLCTPDVTCGSEQVYWSLPDMMQDPVTFRSTRQISNFPVVGAELLPVHSKSFYNDQAVYSQLIRQFTSLTHVFNRFPENQILARPPAPTITTVSENVPALTDHGTLPLRNSIGGVQRVTITDARRRTCPYVYKALGIVSPRVLSSRTFKKKKKKKKKK
binding result: binds
